One test addresses T1, 4H2223-bN.
T1 chain: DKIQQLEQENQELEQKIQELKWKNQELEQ
Briefly: two-hybrid library CCNG1.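 Also: natural log of median RNA to DNA barcode read ratio; higher means stronger binding.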

The next test concerns the target T2, 4H2438-bN.
T2 chain: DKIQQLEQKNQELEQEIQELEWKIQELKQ
Kind of test: two-hybrid library CCNG1.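 Also: natural log of median RNA to DNA barcode read ratio; higher means stronger binding.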

Another test deals with T3, 4H2473-bN.
T3 chain: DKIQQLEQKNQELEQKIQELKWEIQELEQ
Kind of test: two-hybrid library CCNG1.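 Also: natural log of median RNA to DNA barcode read ratio; higher means stronger binding.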

Another test addresses T4, 4H2503-bN.
T4 chain: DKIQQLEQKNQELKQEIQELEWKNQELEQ
Kind of test: two-hybrid library CCNG1.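 Also: natural log of median RNA to DNA barcode read ratio; higher means stronger binding.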

The target of the next test is T5, 4H2588-bN.
T5 chain: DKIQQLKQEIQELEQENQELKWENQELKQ
Briefly: two-hybrid library CCNG1.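 Also: natural log of median RNA to DNA barcode read ratio; higher means stronger binding.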

For the next test, the target named is T6, 4H2692-bN.
T6 chain: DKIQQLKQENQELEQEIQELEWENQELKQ
Kind of test: two-hybrid library CCNG1.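 Also: natural log of median RNA to DNA barcode read ratio; higher means stronger binding.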

The target of another test is T7, 4H2717-bN.
T7 chain: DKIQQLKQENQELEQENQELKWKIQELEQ
Briefly: two-hybrid library CCNG1.

In a further test the target is T8, 4H2839-bN.
T8 chain: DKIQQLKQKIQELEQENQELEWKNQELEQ
Kind of test: two-hybrid library CCNG1.

In a further test the target is T9, 4H2915-bN.
T9 chain: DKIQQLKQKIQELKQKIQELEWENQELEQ
Briefly: two-hybrid library CCNG1.

A further test deals with T10, 4H3057-bN.
T10 chain: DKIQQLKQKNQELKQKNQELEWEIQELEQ
Kind of test: two-hybrid library CCNG1.

The next test deals with T11, 4H319-bN.
T11 chain: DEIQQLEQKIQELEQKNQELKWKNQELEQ
Kind of test: two-hybrid library CCNG1.

The target in another test is T12, 4H3277-bN.
T12 chain: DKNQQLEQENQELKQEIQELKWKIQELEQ
Kind of test: two-hybrid library CCNG1.

The target in a further test is T13, 4H3381-bH.
T13 chain: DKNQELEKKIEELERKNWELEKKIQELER
Briefly: two-hybrid library CCNG1.

The target of the next test is T14, 4H40-bN.
T14 chain: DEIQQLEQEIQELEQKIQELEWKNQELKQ
Briefly: two-hybrid library CCNG1.

A further test concerns the target T15, 4H477-bN.
T15 chain: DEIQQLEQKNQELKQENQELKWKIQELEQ
Briefly: two-hybrid library CCNG1.

In another test the target is T16, 4H492-bN.
T16 chain: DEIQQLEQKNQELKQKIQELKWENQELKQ
Briefly: two-hybrid library CCNG1.

In another test the target is T17, 4H741-bN.
T17 chain: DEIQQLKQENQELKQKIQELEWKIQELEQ
Kind of test: two-hybrid library CCNG1.

For the next test, the target named is T18, 4H1146-AA.
T18 chain: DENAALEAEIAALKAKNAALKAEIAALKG
Kind of test: two-hybrid library CCmax.

Another test addresses T19, 4H1348-AA.
T19 chain: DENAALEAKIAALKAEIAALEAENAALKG
Briefly: two-hybrid library CCmax. Conditions: mean of both orientations.

Another test deals with T20, 4H1391-AA.
T20 chain: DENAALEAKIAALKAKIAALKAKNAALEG
Kind of test: two-hybrid library CCmax.

The target of a further test is T21, 4H146-AA.
T21 chain: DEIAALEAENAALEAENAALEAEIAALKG
Kind of test: two-hybrid library CCmax. Conditions: mean of both orientations.

Another test addresses T22, 4H1809-AA.
T22 chain: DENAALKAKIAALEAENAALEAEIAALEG
Kind of test: two-hybrid library CCmax. Conditions: mean of both orientations.

In a further test the target is T23, 4H1854-AA.
T23 chain: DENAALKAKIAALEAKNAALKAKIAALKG
Kind of test: two-hybrid library CCmax. Conditions: mean of both orientations.

The target of a further test is T24, 4H189-AA.
T24 chain: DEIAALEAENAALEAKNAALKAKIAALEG
Briefly: two-hybrid library CCmax. Conditions: mean of both orientations.

Another test deals with T25, 4H2248-AA.
T25 chain: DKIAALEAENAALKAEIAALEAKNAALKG
Briefly: two-hybrid library CCmax. The note with it: mean of both orientations.

The target of a further test is T26, 4H2283-AA.
T26 chain: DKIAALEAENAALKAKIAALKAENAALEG
Kind of test: two-hybrid library CCmax. The note with it: mean of both orientations.

The target of another test is T27, 4H2713-AA.
T27 chain: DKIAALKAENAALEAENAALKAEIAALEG
Briefly: two-hybrid library CCmax. Conditions: mean of both orientations.

The target in the next test is T28, 4H2742-AA.
T28 chain: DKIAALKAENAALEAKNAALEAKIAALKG
Kind of test: two-hybrid library CCmax. The note with it: mean of both orientations.

Another test addresses T29, 4H2948-AA.
T29 chain: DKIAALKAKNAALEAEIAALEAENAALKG
Kind of test: two-hybrid library CCmax. Conditions: mean of both orientations.

Another test addresses T30, 4H2991-AA.
T30 chain: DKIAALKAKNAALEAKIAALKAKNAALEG
Kind of test: two-hybrid library CCmax. The note with it: mean of both orientations.

The target of another test is T31, 4H3029-AA.
T31 chain: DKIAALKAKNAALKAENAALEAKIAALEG
Kind of test: two-hybrid library CCmax. The note with it: mean of both orientations.

Another test deals with T32, 4H3066-AA.
T32 chain: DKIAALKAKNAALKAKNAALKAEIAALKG
Briefly: two-hybrid library CCmax. The note with it: mean of both orientations.

The target of a further test is T33, 4H3102-AA.
T33 chain: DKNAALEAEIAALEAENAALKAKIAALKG
Kind of test: two-hybrid library CCmax. The note with it: mean of both orientations.

The target in the next test is T34, 4H3121-AA.
T34 chain: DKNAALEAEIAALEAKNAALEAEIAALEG
Briefly: two-hybrid library CCmax. Conditions: mean of both orientations.

The next test addresses T35, 4H3417-AA.
T35 chain: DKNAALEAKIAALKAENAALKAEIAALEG
Briefly: two-hybrid library CCmax. Conditions: mean of both orientations.

The next test has as its target T36, 4H3446-AA.
T36 chain: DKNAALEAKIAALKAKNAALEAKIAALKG
Kind of test: two-hybrid library CCmax.

The target of the next test is T37, 4H3591-AA.
T37 chain: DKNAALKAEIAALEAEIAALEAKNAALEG
Kind of test: two-hybrid library CCmax. Conditions: mean of both orientations.

Another test concerns the target T38, 4H3628-AA.
T38 chain: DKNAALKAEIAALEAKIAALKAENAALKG
Kind of test: two-hybrid library CCmax. Conditions: mean of both orientations.

The target in a further test is T39, 4H3666-AA.
T39 chain: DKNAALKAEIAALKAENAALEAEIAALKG
Briefly: two-hybrid library CCmax. Conditions: mean of both orientations.

The target in a further test is T40, 4H3709-AA.
T40 chain: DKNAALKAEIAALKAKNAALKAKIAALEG
Kind of test: two-hybrid library CCmax. Conditions: mean of both orientations.

The target in another test is T41, 4H391-AA.
T41 chain: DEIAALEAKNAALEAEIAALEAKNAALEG
Briefly: two-hybrid library CCmax. The note with it: mean of both orientations.

The target of a further test is T42, 4H3920-AA.
T42 chain: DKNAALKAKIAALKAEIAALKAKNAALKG
Briefly: two-hybrid library CCmax. Conditions: mean of both orientations.

For the next test, the target named is T43, 4H3939-AA.
T43 chain: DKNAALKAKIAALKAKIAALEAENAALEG
Briefly: two-hybrid library CCmax. The note with it: mean of both orientations.

For a further test, the target named is T44, 4H428-AA.
T44 chain: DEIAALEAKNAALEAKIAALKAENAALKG
Briefly: two-hybrid library CCmax. Conditions: mean of both orientations.

For a further test, the target named is T45, 4H478-AA.
T45 chain: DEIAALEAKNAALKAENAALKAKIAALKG
Kind of test: two-hybrid library CCmax. Conditions: mean of both orientations.

Another test deals with T46, 4H497-AA.
T46 chain: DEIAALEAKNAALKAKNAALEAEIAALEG
Kind of test: two-hybrid library CCmax. Conditions: mean of both orientations.

The next test concerns the target T47, 4H656-AA.
T47 chain: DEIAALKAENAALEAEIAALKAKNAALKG
Kind of test: two-hybrid library CCmax. Conditions: mean of both orientations.

The target of another test is T48, 4H675-AA.
T48 chain: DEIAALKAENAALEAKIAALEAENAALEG
Briefly: two-hybrid library CCmax. The note with it: mean of both orientations.

A further test has as its target T49, 4H971-AA.
T49 chain: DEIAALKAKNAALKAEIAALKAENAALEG
Briefly: two-hybrid library CCmax. The note with it: mean of both orientations.

For another test, the target named is T50, P2A.
T50 chain: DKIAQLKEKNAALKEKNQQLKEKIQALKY
Kind of test: two-hybrid library CCNG1.

The next test concerns the target T51, P3A.
T51 chain: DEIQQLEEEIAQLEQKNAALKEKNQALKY
Briefly: two-hybrid library CCNG1.

For another test, the target named is T52, P4A.
T52 chain: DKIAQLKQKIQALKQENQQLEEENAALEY
Briefly: two-hybrid library CCNG1.

Another test concerns the target T53, P5A.
T53 chain: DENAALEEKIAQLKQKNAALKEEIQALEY
Kind of test: two-hybrid library CCNG1.

The next test has as its target T54, P6A.
T54 chain: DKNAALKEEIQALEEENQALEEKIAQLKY
Briefly: two-hybrid library CCNG1.

The target in a further test is T55, P7A.
T55 chain: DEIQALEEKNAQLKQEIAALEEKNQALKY
Kind of test: two-hybrid library CCNG1.

For a further test, the target named is T56, P8A.
T56 chain: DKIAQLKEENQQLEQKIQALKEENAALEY
Briefly: two-hybrid library CCNG1.

In the next test the target is T57, P9A.
T57 chain: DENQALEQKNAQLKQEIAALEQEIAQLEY
Briefly: two-hybrid library CCNG1.

B1: 4H2223-bN (peptide)
chain: DKIQQLEQENQELEQKIQELKWKNQELEQ
As for B1, the interaction score with 4H2223-bN is 0.483; with 4H2438-bN it was -0.0421; with 4H2473-bN it was -0.941; with 4H2503-bN, 1.04; with 4H2588-bN, 0.654; in the test with 4H2692-bN, -0.818. Besides, the interaction score with 4H2717-bN is -2.14; in the test with 4H2839-bN, -0.721; with 4H2915-bN it was -1.33; in the test with 4H3057-bN, -0.362; with 4H319-bN it was -0.943; in the test with 4H3277-bN, -0.393. Besides, the interaction score in the test with 4H3381-bH is 0.0621; with 4H40-bN, -0.775; in the test with 4H477-bN, -1.55; in the test with 4H492-bN, 0.539; with 4H741-bN, -0.691.

B2: 4H1146-AA (peptide)
chain: DENAALEAEIAALKAKNAALKAEIAALKG
Take B2: the interaction score in the test with 4H1146-AA was -0.0838; with 4H1348-AA, -1.15; in the test with 4H1391-AA, -1.56; with 4H146-AA, 0.0699; with 4H1809-AA it was 2.05; with 4H1854-AA, -0.715. Further, the interaction score is -1.57 with 4H189-AA; -0.598 in the test with 4H2248-AA; -0.542 in the test with 4H2283-AA; -0.725 with 4H2713-AA; -1.39 in the test with 4H2742-AA; -0.764 with 4H2948-AA. In addition, the interaction score with 4H2991-AA is -0.0174; with 4H3029-AA, -1.14; with 4H3066-AA, -1.53; with 4H3102-AA, 0.627; with 4H3121-AA, -0.198; with 4H3417-AA it was 0.618. Also, the interaction score in the test with 4H3446-AA was 0.452; with 4H3591-AA it was -0.991; with 4H3628-AA, -1.65; in the test with 4H3666-AA it was 2.01; with 4H3709-AA, -0.436; in the test with 4H391-AA, -1.21. In addition, the interaction score with 4H3920-AA was -1.58; with 4H3939-AA it was -1.69; with 4H428-AA, -0.861; in the test with 4H478-AA, -1.22; with 4H497-AA it was -1.98; with 4H656-AA, 1.71. Moreover, the values for the interaction score in the test with 4H675-AA and with 4H971-AA were 0.0108 and -0.562, respectively.

B3: P2A (peptide)
chain: DKIAQLKEKNAALKEKNQQLKEKIQALKY
On to B3, for which the interaction score with P2A is -1.07; in the test with P3A it was -1.21; in the test with P4A, -1.63; with P5A it was -1.27; with P6A it was -0.59; with P7A it was -2.38. The interaction score is -0.85 with P8A and -0.481 in the test with P9A.

The values above are taken from PMC10397247.
